What all share (test): EMSA
Data set [1] deals with DNMT3A full-length (human, UniProt Q9Y6K1 1-912).
The target of data set [2] is DNMT3A catalytic domain (cDNMT3A) (human, UniProt Q9Y6K1 612-912).
For data set [3], the target named is T1, M.HhaI (bacterial (species ), UniProt P05102 1-327).
T1 sequence: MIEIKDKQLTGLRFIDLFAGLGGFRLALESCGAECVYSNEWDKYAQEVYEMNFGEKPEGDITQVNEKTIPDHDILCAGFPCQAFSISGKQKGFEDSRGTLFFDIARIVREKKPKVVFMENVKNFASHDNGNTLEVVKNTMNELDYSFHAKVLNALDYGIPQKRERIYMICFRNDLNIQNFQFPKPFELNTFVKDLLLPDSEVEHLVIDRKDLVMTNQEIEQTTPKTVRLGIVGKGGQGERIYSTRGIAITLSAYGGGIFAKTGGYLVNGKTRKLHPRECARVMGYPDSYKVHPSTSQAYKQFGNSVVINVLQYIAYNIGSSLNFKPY

Chain of DNMT3A full-length (Q9Y6K1 whole entry, the tested form may be a part): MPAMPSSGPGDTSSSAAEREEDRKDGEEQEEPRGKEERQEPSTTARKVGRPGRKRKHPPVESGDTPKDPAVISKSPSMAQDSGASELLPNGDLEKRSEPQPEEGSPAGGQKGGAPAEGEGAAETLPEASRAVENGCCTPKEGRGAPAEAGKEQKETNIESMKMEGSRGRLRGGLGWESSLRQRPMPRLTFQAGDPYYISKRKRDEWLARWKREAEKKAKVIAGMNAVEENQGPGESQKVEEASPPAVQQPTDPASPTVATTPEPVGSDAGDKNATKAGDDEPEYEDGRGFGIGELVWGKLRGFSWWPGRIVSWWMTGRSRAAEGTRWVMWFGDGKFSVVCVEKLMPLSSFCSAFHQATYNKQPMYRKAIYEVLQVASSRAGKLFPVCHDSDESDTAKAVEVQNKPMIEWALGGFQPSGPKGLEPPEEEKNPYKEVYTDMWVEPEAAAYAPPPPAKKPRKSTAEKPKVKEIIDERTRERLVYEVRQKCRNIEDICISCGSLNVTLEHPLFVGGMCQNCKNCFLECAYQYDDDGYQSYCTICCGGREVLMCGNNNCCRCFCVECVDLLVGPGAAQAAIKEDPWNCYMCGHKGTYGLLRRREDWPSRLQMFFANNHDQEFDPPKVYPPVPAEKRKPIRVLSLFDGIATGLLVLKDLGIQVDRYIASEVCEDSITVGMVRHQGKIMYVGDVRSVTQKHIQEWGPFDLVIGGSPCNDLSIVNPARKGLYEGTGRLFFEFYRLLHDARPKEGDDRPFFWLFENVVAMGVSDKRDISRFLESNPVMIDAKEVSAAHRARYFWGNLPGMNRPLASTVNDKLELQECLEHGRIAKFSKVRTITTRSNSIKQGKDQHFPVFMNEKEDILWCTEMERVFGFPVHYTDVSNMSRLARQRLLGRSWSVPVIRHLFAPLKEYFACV
Chain of DNMT3A catalytic domain (cDNMT3A) (Q9Y6K1 612-912): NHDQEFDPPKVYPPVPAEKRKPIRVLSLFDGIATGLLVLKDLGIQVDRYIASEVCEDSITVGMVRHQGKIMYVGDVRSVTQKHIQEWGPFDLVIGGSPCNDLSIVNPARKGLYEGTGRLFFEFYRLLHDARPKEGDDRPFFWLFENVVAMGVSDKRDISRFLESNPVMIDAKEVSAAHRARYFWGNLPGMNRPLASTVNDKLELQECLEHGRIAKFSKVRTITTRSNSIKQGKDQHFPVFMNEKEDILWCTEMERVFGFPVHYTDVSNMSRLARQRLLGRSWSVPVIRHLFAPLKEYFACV

B1: NUP153 duplex siRNA (dsRNA)
RNA 1: ACCAAAUAAAACUGGCAAATT
RNA 2: UUUGCCAGUUUUAUUUGGUTT
modifications: 3' dTdT on both strands (DNA residues)
As to B1, in data set [1], the dissociation constant Kd (commonly the free concentration of one partner at which half of the binding sites on the other are occupied at equilibrium, for simple one-to-one binding) was 520 nM. This counts as sub-micromolar.
In the case of GAGUUUACCCCGCGCCACCUU (ssRNA) [EFS1 (ssEF1a RNA)], the binding result in data set [2] and in data set [3] was “no binding” in each case. Moreover, binding in data set [1] was characterised by a dissociation constant (Kd) of 690 nM.

Source of the values: article PMC3458530.
